This is an account of results in publication PMC2064389 (The Journal of Cell Biology, 2006).

Read-outs that look alike come from different tables or passages of the source.

Holding throughout (experiment): liposome flotation
For experiment [1], the target named is mArf1p (wild type or Q71L not told) (yeast) (UniProt P11076).
Experiment [2] deals with T1, Chs5–Chs6[all] complex (yeast, UniProt Q12114 1-671; P40955 1-746; Q05029 1-724; Q08754 1-746; P36122 1-765).
Experiment [3] has as its target T1, Chs5–Chs6[all] complex. The source holds these as a separate data set.
Experiment [4] addresses Complex of Chs5p with two paralogues (Chs6p and Bch1p) (yeast, UniProt Q12114 1-671; P40955 1-746; Q05029 1-724).

Chain of Complex of Chs5p with two paralogues (Chs6p and Bch1p) (Q12114 whole entry, chain 1 of 3): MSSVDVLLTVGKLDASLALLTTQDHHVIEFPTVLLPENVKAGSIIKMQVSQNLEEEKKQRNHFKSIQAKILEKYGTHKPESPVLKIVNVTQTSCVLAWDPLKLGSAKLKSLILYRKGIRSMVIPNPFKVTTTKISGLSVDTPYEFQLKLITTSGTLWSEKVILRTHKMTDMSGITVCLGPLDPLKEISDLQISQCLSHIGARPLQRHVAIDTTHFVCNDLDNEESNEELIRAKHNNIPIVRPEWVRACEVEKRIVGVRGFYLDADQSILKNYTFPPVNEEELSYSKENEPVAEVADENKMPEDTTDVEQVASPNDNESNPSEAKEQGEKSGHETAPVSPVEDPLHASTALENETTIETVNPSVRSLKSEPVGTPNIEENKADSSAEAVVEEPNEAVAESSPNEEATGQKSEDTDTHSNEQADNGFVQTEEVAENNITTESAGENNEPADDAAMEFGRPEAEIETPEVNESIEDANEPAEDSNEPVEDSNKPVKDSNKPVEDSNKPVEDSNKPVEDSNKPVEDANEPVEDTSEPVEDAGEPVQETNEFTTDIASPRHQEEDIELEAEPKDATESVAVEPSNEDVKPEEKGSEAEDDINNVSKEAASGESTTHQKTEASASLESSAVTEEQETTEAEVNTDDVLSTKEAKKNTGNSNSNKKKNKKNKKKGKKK
Chain of Complex of Chs5p with two paralogues (Chs6p and Bch1p) (P40955 whole entry, chain 2 of 3): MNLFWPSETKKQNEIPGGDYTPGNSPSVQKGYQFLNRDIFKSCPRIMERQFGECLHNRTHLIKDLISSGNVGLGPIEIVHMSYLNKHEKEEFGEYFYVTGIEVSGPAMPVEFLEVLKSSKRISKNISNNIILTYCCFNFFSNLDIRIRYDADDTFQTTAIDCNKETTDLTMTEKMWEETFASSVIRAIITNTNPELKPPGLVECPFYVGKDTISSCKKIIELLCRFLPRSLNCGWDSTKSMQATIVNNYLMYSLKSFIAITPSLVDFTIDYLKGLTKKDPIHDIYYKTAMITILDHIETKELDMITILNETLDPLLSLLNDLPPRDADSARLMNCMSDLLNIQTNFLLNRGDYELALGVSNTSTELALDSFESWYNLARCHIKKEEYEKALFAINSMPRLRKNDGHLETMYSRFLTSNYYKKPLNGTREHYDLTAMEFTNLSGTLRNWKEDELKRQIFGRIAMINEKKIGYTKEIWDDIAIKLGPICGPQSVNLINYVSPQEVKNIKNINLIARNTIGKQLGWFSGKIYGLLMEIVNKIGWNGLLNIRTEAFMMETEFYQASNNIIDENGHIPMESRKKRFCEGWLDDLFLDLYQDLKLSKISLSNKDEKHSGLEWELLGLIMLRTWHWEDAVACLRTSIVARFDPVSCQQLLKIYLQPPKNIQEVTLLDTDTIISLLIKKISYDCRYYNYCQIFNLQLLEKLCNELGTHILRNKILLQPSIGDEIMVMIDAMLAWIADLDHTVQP
Chain of Complex of Chs5p with two paralogues (Chs6p and Bch1p) (Q05029 whole entry, chain 3 of 3): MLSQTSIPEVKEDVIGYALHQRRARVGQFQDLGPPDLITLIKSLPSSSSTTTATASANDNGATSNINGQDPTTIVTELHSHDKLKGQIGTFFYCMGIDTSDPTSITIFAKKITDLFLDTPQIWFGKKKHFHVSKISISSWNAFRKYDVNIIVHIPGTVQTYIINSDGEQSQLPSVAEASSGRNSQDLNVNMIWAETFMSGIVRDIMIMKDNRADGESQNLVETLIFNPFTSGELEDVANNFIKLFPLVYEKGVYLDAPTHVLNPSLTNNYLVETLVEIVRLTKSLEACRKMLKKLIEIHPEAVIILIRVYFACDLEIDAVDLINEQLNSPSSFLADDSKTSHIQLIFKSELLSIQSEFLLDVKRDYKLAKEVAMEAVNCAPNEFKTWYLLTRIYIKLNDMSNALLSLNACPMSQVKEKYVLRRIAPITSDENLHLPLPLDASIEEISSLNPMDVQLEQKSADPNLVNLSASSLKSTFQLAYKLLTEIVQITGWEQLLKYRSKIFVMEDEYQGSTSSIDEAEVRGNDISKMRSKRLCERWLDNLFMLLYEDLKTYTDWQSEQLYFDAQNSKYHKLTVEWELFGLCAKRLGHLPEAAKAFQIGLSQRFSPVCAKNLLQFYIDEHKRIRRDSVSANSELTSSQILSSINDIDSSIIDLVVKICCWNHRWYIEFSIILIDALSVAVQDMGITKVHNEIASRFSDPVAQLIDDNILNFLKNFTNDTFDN

Regarding “Chs5–Chs6[all] complex (from UniProt Q12114 1-671; P40955 1-746; Q05029 1-724; Q08754 1-746; P36122 1-765)”, in experiment [1], the concentration of Chs5–Chs6[all] at which binding was saturated (∼1 μM mArf1p) worked out at 0.5 µM and the stoichiometry N (Arf1 per Chs5–Chs6[all] complex (molar)) is 7.5.

B1: Recombinant myristoylated Arf1p (Q71L; GTPase deficient) (natural protein, yeast, UniProt P11076 1-181, looked up)
chain: MGLFASKLFSNLFGNKEMRILMVGLDGAGKTTVLYKLKLGEVITTIPTIGFNVETVQYKNISFTVWDVGGLDRIRSLWRHYYRNTEGVIFVVDSNDRSRIGEAREVMQRMLNEDELRNAAWLVFANKQDLPEAMSAAEITEKLGLHSIRNRPWFIQATCATSGEGLYEGLEWLSNSLKNST
modifications: N-myristoylated (>75% of the protein)
With B1, the binding result with Chs5–Chs6[all] complex [2] was “binds”.

B2: Myristoylated wild-type Arf1p (natural protein, yeast, UniProt P11076 1-181, looked up)
chain: MGLFASKLFSNLFGNKEMRILMVGLDGAGKTTVLYKLKLGEVITTIPTIGFNVETVQYKNISFTVWDVGGQDRIRSLWRHYYRNTEGVIFVVDSNDRSRIGEAREVMQRMLNEDELRNAAWLVFANKQDLPEAMSAAEITEKLGLHSIRNRPWFIQATCATSGEGLYEGLEWLSNSLKNST
modifications: N-myristoylated (>75% of the protein)
With B2, the binding result (in the experiment with Chs5–Chs6[all] complex [3]; in experiment [4]) was “binds” in each case.
